Experiments:
Assay in all cases: split reporter
[1] = biological target: T1, Mpd1p (S. cerevisiae, UniProt Q12404 22-318)
T1 sequence: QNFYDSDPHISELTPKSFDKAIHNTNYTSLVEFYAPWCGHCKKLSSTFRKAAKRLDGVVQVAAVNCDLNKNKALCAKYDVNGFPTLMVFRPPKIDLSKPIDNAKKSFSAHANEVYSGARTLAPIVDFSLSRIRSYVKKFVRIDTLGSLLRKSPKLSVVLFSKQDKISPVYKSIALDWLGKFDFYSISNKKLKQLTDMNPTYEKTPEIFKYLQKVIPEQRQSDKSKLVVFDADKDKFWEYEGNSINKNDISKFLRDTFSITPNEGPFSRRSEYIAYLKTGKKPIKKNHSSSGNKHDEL

[2] = biological target: T2, Sil1p (S. cerevisiae, UniProt Q08199 20-421)
T2 sequence: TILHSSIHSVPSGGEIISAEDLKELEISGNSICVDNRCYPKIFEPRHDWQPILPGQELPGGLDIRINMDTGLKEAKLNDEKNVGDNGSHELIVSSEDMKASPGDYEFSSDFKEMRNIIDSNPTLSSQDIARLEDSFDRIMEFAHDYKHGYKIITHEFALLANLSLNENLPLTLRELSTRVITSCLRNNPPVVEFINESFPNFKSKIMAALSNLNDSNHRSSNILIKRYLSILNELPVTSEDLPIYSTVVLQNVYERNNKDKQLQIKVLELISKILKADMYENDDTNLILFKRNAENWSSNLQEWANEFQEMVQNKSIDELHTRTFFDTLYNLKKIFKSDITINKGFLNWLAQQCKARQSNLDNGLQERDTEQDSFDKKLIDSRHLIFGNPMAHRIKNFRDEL

[3] = biological target: T3, Eug1p (S. cerevisiae, UniProt P32474 30-517)
T3 sequence: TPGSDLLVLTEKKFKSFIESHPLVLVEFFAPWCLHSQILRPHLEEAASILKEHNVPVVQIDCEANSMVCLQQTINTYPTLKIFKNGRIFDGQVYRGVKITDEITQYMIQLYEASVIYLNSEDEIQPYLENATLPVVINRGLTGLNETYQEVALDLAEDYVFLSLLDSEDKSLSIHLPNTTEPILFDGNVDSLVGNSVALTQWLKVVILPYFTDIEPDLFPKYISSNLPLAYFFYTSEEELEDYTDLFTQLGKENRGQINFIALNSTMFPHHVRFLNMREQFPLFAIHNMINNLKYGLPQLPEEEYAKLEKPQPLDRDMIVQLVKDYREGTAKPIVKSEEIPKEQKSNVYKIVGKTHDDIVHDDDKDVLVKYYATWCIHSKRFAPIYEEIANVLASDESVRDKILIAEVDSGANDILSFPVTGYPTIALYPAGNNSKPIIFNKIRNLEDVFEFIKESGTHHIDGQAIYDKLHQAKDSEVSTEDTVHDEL

[4] = biological target: T4, Sec20p (S. cerevisiae, UniProt P28791 1-383)
T4 sequence: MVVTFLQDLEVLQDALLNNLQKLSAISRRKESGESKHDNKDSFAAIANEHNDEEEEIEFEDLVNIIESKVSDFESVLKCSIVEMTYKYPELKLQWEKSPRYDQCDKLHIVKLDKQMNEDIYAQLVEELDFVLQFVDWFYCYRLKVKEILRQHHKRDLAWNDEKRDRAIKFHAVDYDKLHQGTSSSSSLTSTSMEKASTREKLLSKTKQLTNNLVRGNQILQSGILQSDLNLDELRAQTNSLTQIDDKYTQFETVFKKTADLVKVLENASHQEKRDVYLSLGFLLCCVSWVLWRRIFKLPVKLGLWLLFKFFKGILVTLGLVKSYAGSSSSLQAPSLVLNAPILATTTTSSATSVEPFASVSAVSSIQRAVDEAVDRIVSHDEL

[5] = biological target: T5, Pdi1p (S. cerevisiae, UniProt P17967 29-522)
T5 sequence: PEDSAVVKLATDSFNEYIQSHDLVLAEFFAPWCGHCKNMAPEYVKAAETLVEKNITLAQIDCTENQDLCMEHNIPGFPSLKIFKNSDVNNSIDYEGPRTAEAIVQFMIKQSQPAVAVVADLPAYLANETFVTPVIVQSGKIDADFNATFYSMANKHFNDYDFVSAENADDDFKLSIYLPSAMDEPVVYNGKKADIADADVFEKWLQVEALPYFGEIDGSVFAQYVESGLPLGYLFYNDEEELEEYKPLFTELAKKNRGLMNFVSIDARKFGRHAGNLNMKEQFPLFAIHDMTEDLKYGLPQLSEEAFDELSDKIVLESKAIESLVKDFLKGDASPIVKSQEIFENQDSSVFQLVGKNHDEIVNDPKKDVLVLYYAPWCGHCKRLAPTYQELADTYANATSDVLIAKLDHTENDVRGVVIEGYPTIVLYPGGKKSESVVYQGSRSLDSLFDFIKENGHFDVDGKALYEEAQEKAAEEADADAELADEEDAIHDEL

normalized interacting score [1]: 18% | normalized interacting score [2]: 93% | normalized interacting score [3]: > 40% | normalized interacting score [4]: 20% | normalized interacting score [5]: > 40%
B1: Lhs1p (natural protein)
chain: AVLGVDYGQQNIKAIVVSPQAPLELVLTPEAKRKEISGLSIKRLPGYGKDDPNGIERIYGSAVGSLATRFPQNTLLHLKPLLGKSLEDETTVTLYSKQHPGLEMVSTNRSTIAFLVDNVEYPLEELVAMNVQEIANRANSLLKDRDARTEDFVNKMSFTIPDFFDQHQRKALLDASSITTGIEETYLVSEGMSVAVNFVLKQRQFPPGEQQHYIVYDMGSGSIKASMFSILQPEDTTQPVTIEFEGYGYNPHLGGAKFTMDIGSLIENKFLETHPAIRTDELHANPKALAKINQAAEKAKLILSANSEASINIESLINDIDFRTSITRQEFEEFIADSLLDIVKPINDAVTKQFGGYGTNLPEINGVILAGGSSRIPIVQDQLIKLVSEEKVLRNVNADESAVNGVVMRGIKLSNSFKTKPLNVVDRSVNTYSFKLSNESELYDVFTRGSAYPNKTSILTNTTDSIPNNFTIDLFENGKLFETITVNSGAIKNSYSSDKCSSGVAYNITFDLSSDRLFSIQEVNCICQSENDIGNSKQIKNKGSRLAFTSEDVEIKRLSPSERSRLHEHIKLLDKQDKERFQFQENLNVLESNLYDARNLLMDDEVMQNGPKSQVEELSEMVKVYLDWLEDASFDTDPEDIVSRIREIGILKKKIELYMDSAKEPLNSQQFKGMLEEGHKLLQAIETHKNTVEEFLSQFETEFADTIDNVREEFKKIKQPAYVSKALSTWEETLTSFKNSISEIEKFLAKNLFGEDLREHLFEIKLQFDMYRTKLEEKLRLIKSGDESRLNEIKKLHLRNFRLQKRKEEKLKRKLEQEKSRNNNETESTVINSADDKTTIVNDKTTESNPSSEEDILHDEL

Source: article doi:10.1101/2024.05.21.594841 (bioRxiv, 2024)
